Assay results taken from paper PMC7239654, “R-spondins engage heparan sulfate proteoglycans to potentiate WNT signaling” (eLife, 2020).

Assays:
[1] = biological target: T1, glycosylated GPC4 (Homo sapiens (assumed), UniProt O75487, heparan sulfate chains (glycosylated)); assay: ELISA; 96-well plate coated with 5 μg/ml of the GPC protein; HS20 added in serial 2-fold dilutions starting from 1 μg/ml, 1 hr at RT; washed with PBST; detected with goat anti-human kappa chain HRP conjugate and TMB, absorbance at 450 nm; details: both partners purified
T1 construct: glypican 4 (GPC4), glycosylated recombinant protein, R and D Systems Cat. # 9195-GP; also called glypican 4; source: bought: R and D Systems

[2] = biological target: T2, glycosylated GPC3 (Homo sapiens (assumed), UniProt P51654, heparan sulfate chains (glycosylated)); assay: as above; details: both partners purified
T2 construct: glypican 3 (GPC3), glycosylated recombinant protein, R and D Systems Cat. # 2119-GP; also called glypican 3; source: bought: R and D Systems
T2 sequence (P51654 25-580): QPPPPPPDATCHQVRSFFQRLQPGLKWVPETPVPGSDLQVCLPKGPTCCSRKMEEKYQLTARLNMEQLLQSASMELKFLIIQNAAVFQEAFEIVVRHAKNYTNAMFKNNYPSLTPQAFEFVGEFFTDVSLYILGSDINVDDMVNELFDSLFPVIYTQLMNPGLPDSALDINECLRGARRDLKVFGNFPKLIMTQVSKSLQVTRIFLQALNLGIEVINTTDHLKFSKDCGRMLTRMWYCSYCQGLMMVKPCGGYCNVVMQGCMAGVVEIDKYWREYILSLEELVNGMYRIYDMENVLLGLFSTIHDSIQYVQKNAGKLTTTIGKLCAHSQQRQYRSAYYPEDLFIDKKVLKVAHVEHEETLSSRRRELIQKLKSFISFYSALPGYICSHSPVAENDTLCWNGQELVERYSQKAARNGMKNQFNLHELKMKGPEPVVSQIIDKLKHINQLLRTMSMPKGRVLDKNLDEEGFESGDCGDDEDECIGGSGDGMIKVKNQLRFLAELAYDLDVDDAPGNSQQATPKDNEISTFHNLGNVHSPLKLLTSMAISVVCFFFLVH

T1 sequence (O75487 19-529): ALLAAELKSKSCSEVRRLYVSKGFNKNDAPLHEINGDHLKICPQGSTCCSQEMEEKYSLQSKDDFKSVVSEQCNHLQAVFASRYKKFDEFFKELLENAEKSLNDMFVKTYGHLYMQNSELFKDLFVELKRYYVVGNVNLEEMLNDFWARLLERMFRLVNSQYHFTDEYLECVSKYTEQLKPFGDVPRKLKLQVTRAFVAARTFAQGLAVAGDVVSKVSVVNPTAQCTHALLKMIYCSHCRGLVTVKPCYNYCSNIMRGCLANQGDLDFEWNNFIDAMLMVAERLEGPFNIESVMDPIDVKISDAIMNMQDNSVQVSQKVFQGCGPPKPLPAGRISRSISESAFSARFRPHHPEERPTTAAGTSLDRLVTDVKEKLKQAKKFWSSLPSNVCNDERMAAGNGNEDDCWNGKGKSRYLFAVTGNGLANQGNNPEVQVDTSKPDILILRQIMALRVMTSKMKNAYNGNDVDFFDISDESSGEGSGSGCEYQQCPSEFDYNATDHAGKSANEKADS

B1: HS20 scFv (scFv, V domains shown)
VH: EVQLLESGGGLVQPGGSLRLSCAASGFTFSSYAMSWVRQAPGKGLEWVSTIQKQGLPTQYADSVKGRFTISRDNSKNTLYLQMNSLRAEDTAVYYCAKNRAKFDYWGQGTLVTVSS
VL: DIQMTQSPSSLSASVGDRVTITCRASQSISSYLNWYQQKPGKAPKLLIYAASMLQSGVPSRFSGSGSGTDFTLTISSLQPEDFATYYCQQNRGFPLTFGQGTKVEIK
notes: it was detected through its human kappa chain
binding result [1]: binds
binding result [2]: binds
